Source: publication PMC3805524, “GmSAL1 Hydrolyzes Inositol-1,4,5-Trisphosphate and Regulates Stomatal Closure in Detached Leaves and Ion Compartmentalization in Plant Cells” (PLoS ONE, 2013)

Substrate: O=P(O)(O)O[C@@H]1[C@H](O)[C@H](O)[C@@H](OP(=O)(O)O)[C@H](OP(=O)(O)O)[C@H]1O
Experiment: purified protein
Type: biochemical, Glycine max
Settings: 25 mM Tris-HCl pH 7.5, 1 mM MgCl2, 37°C, 30 min, IP3 0.0125-0.2 mM

B1: GmSAL1 (Glycine max) (protein)
chain: MPYEKEFAAAKKAATLAARLCKKVQKALLQSDVHSKSDKSPVTVADYGSQALVSFILERELPSEPFSLVAEEDSGDLRKESGQDTLKRITELVNDTLASEGSNSFSTLTTDDVLAAIDGGKSEGGSVGRHWVLDPIDGTKGFVRGDQYAIALALLDEGKVVLGVLACPNLPLASIGSNQQLSSSNEVGCLFFAKVGDGTYMQALGGSTQTRVHVCDIDNPEEASFFESFEAAHSSHDLSSSIAEKLGVKAPPVRIDSQAKYGALSRGDGAIYLRFPHKGYREKIWDHAAGSIVVTEAGGIAMDAAGNPLDFSKGKFLDVVSGIIVTNQKLKASLLRAVKEALNEKVSSL
notes: cloning primers encode N-terminal MPYEKEF and C-terminal KVSSL
Km: 10.8 ± 0.1 µM
kcat: 1.13 ± 0.217 s⁻¹
